According to paper PMC6392328:

Key:
[1] = target: pAcGFP1-53 (positive control bait) (UniProt P02340); assay: co-IP; Matchmaker Co-IP system; HEK 293 cells co-transfected with the pAcGFP1 bait and the pProLabel prey; co-immunoprecipitation with protein G Plus/A agarose beads, read by the ProLabel enzyme complementation assay (RLU every 5 min for 45 min)
[2] = target: ASB9 bait in the pAcGFP1-C vector (pAcGFP1-ASB9) (bovine); assay: as above

Chain of UniProt P02340 (P02340 whole entry): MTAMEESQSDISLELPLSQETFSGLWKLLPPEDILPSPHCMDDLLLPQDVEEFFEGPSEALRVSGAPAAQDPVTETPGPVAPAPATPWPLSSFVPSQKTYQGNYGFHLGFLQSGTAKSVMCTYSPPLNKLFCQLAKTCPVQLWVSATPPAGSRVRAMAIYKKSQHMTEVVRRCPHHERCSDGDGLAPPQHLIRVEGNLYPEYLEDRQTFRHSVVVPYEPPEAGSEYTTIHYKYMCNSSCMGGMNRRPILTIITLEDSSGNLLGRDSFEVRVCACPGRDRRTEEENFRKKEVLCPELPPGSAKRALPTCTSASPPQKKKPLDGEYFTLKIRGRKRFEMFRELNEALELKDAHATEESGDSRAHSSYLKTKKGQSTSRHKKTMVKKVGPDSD

| Substance | fold induction of ProLabel enzymatic activity after co-IP (positive control) [1] [fold] | fold induction of ProLabel enzymatic activity after co-IP, against the negative control, at 40 minutes [2] [fold] |
| --- | --- | --- |
| ProLabel-T (positive control prey) (natural protein) | 37 | – |
| Hypoxia inducible factor 1, alpha subunit (HIF1A) in the pProLabel-C vector (natural protein) | – | 13 |
| Tumor necrosis factor alpha-induced protein 6 (TNFAIP6) in the pProLabel-C vector (natural protein) | – | 18 |
